Source: the supplement of paper PMC9233669
Fewer inactive variants are shown than the library holds.

Experiments:
biotinyl-Trp-oxazolone = assay: self-aminoacylation, catalytic enhancement (BWO) (fold over background); higher = more active; k-Seq, kA / k0A0; sequences stand for … in GGGAAUGGAUCCACAUCUACGAAUUC…UUCACUGCAGACUUGACGAAGCUG
Method in brief: (§1)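 Catalytic enhancement equals the median kA over the uncatalyzed rate, the latter read from the low-activity peak of a bimodal Gaussian fit. Values of kA came from fitting each sequence's fraction reacted to a pseudo-first-order model, with 1000 bootstraps. Reacted RNA was captured with streptavidin and quantified by triplicate qPCR and Illumina sequencing after 90 minutes at room temperature with 2–1250 μM biotinyl-aminoacyl-oxazolone and 0.43 μM mutagenized RNA pools bearing a 21-nt variable region.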

biotinyl-Ile-oxazolone = assay: self-aminoacylation, catalytic enhancement (BIO) (fold over background); higher = more active; k-Seq, kA / k0A0; sequences stand for … in GGGAAUGGAUCCACAUCUACGAAUUC…UUCACUGCAGACUUGACGAAGCUG
Method in brief: as §1

biotinyl-Leu-oxazolone = assay: self-aminoacylation, catalytic enhancement (BLO) (fold over background); higher = more active; k-Seq, kA / k0A0; sequences stand for … in GGGAAUGGAUCCACAUCUACGAAUUC…UUCACUGCAGACUUGACGAAGCUG
Method in brief: as §1

biotinyl-Met-oxazolone = assay: self-aminoacylation, catalytic enhancement (BMO) (fold over background); higher = more active; k-Seq, kA / k0A0; sequences stand for … in GGGAAUGGAUCCACAUCUACGAAUUC…UUCACUGCAGACUUGACGAAGCUG
Method in brief: as §1

biotinyl-Val-oxazolone = assay: self-aminoacylation, catalytic enhancement (BVO) (fold over background); higher = more active; k-Seq, kA / k0A0; sequences stand for … in GGGAAUGGAUCCACAUCUACGAAUUC…UUCACUGCAGACUUGACGAAGCUG
Method in brief: as §1

biotinyl-Phe-oxazolone = assay: self-aminoacylation, catalytic enhancement (BFO) (fold over background); higher = more active; k-Seq, kA / k0A0; sequences stand for … in GGGAAUGGAUCCACAUCUACGAAUUC…UUCACUGCAGACUUGACGAAGCUG
Method in brief: as §1

Sequence | self-aminoacylation (biotinyl-Trp-oxazolone) | self-aminoacylation (biotinyl-Ile-oxazolone) | self-aminoacylation (biotinyl-Leu-oxazolone) | self-aminoacylation (biotinyl-Met-oxazolone) | self-aminoacylation (biotinyl-Val-oxazolone) | self-aminoacylation (biotinyl-Phe-oxazolone)
AAGUUCCCUAAUAGUCGCAAG [Fam3.1 aminoacylation ribozyme variant] | 0.613 | 1.12 | 0.965 | 0.931 | 0.992 | 0.485
UUUACCCUGGUGAUCGAGUGA [Fam2.1 aminoacylation ribozyme variant] | 7.87 | 3.39 | 6.55 | 6.47 | 3.51 | 28.6
CUCCUUCAAACUAUCGGUCUG [Fam1A.1 aminoacylation ribozyme variant] | 1.5 | 1.14 | 0.895 | 1.17 | 1.15 | 1.92
AUUACUCUGGACAUCGAGUGA [Fam2.1 aminoacylation ribozyme variant] | 8.33 | 2.93 | 6.1 | 5.55 | 2.83 | 30.9
AUUCACCUCGGGCAUCGGGUG [Fam2.2 aminoacylation ribozyme variant] | 5.56 | 3.71 | 6.03 | 5.94 | 5.1 | 34.5
CCACGCUUCAAGCAAUCAGUC [Fam1B.1 aminoacylation ribozyme variant] | 9.22 | 0.745 | 0.886 | 0.811 | 0.83 | 27.4
CCACACUGGAAGCAAUCGGUC [Fam1B.1 aminoacylation ribozyme variant] | 0.543 | 0.881 | 0.737 | 0.78 | 1.08 | 0.508
CCCCACUUCAAGCAAUCGGUG [Fam1B.1 aminoacylation ribozyme variant] | 12.5 | 6.57 | 13.9 | 11 | 7.84 | 75.4
AUUACCCUAGUCAUCGUGUGA [Fam2.1 aminoacylation ribozyme variant] | 2.89 | 1.25 | 2.17 | 2.4 | 1.29 | 5.35
AAGUUUCGUAAUAGUCGCAAG [Fam3.1 aminoacylation ribozyme variant] | 1.61 | 1.63 | 1.78 | 1.27 | 1.33 | 2.26
AUUUCCCUGGUCAUUGAGUGA [Fam2.1 aminoacylation ribozyme variant] | 10 | 4.47 | 8.38 | 8.36 | 4.4 | 63.1
CUAAUUCAAACAAUCGGUGUG [Fam1A.1 aminoacylation ribozyme variant] | 0.691 | 0.75 | 1.01 | 0.913 | 0.659 | 0.924
AUUACUCUGGUCGUCGAGUGA [Fam2.1 aminoacylation ribozyme variant] | 0.657 | 1.08 | 1.31 | 1.16 | 1.16 | 0.488
AUGUGUGCUAAUAGUCGCAAG [Fam3.1 aminoacylation ribozyme variant] | 1.95 | 1.57 | 1.36 | 1.2 | 1.37 | 3.53
AUUCACCUAAGUCAUCGAGUG [Fam2.2 aminoacylation ribozyme variant] | 5.16 | 3.92 | 7.69 | 5.75 | 3.78 | 22.9
UAGUUUGCUAAUAGUGGCAAG [Fam3.1 aminoacylation ribozyme variant] | 0.543 | 0.819 | 0.753 | 0.891 | 0.688 | 1.63
AUUCCCGUGGUCAUCGAGUGA [Fam2.1 aminoacylation ribozyme variant] | 11.3 | 5.17 | 9.05 | 8.45 | 5.81 | 63.3
CCCCACUUCAAGCAAUCGGAC [Fam1B.1 aminoacylation ribozyme variant] | 2.45 | 1.45 | 1.19 | 1.44 | 1.52 | 2.8
AUUACCUUGGUCAUCAAGUGA [Fam2.1 aminoacylation ribozyme variant] | 4.02 | 1.97 | 3.54 | 3.32 | 1.92 | 3.79
CUACUUCAAACAACCGGCCUG [Fam1A.1 aminoacylation ribozyme variant] | 1.49 | 1.8 | 1.51 | 2.4 | 1.86 | 2.27
AUUCACCUAGGUCAUAGUGUG [Fam2.2 aminoacylation ribozyme variant] | 0.453 | 0.658 | 0.67 | 0.625 | 0.727 | 0.512
CUACUUCAAUUAAUCGGUCUG [Fam1A.1 aminoacylation ribozyme variant] | 13.9 | 1.08 | 1.33 | 1.03 | 0.985 | 18.7
AUUCACCUAUGUCAUCGGGUG [Fam2.2 aminoacylation ribozyme variant] | 5.45 | 3.61 | 7.41 | 5.41 | 3.48 | 36.7
AAACUUGCUAAUAGUCGCAAG [Fam3.1 aminoacylation ribozyme variant] | 4.6 | 2.62 | 1.29 | 1.76 | 1.97 | 2.21
AUUCACCUAGGUAAUCGGGUG [Fam2.2 aminoacylation ribozyme variant] | 2.81 | 1.85 | 3.64 | 2.8 | 1.85 | 17.5
GUUCACCUAGGUCAUCGGCUG [Fam2.2 aminoacylation ribozyme variant] | 1.97 | 1.67 | 2.04 | 1.49 | 1.98 | 7.17

Sequence | self-aminoacylation (biotinyl-Trp-oxazolone) | self-aminoacylation (biotinyl-Ile-oxazolone) | self-aminoacylation (biotinyl-Leu-oxazolone) | self-aminoacylation (biotinyl-Met-oxazolone) | self-aminoacylation (biotinyl-Val-oxazolone) | self-aminoacylation (biotinyl-Phe-oxazolone)
GUUCACCUAUGUCAUCGGGUG [Fam2.2 aminoacylation ribozyme variant] | 4.3 | 3.1 | 5.63 | 4.03 | 3.31 | 21.4
AUUACCCUGUUCAUCGUGUGA [Fam2.1 aminoacylation ribozyme variant] | 8.71 | 3.1 | 6.24 | 6.29 | 3.04 | 43.7
AUUUCCCUGGUCAUCGAGUGA [Fam2.1 aminoacylation ribozyme variant] | 16.5 | 7.41 | 14.3 | 14.3 | 8.47 | 27.4
UUUACCCUGAUCAUCGAGUGA [Fam2.1 aminoacylation ribozyme variant] | 9.79 | 3.92 | 7.11 | 8.08 | 4.05 | 23.3
AUUCACCUAGGUUAUUGGGUG [Fam2.2 aminoacylation ribozyme variant] | 6.1 | 3.48 | 7.19 | 5.84 | 3.15 | 45
AUUACCCUGGUGGUCGAGUGA [Fam2.1 aminoacylation ribozyme variant] | 1.83 | 1.47 | 1.95 | 2.28 | 1.61 | 12.8
CCACACUUCCAGAAAUCGGUC [Fam1B.1 aminoacylation ribozyme variant] | 0.976 | 0.933 | 1.13 | 0.808 | 1.06 | 1.69
CUUCUUCAAACUAUCGGUCUG [Fam1A.1 aminoacylation ribozyme variant] | 0.962 | 1.26 | 1 | 0.943 | 1.01 | 1.22
CCACACUUCGAGCAAGCGGUC [Fam1B.1 aminoacylation ribozyme variant] | 0.82 | 0.864 | 0.874 | 0.927 | 1.19 | 0.487
AUUCACCUAGGUUAUCGAGUG [Fam2.2 aminoacylation ribozyme variant] | 1.89 | 1.4 | 2.35 | 1.97 | 1.42 | 2.32
CCACACUUUAAGUAAUCGGUC [Fam1B.1 aminoacylation ribozyme variant] | 0.677 | 0.653 | 0.667 | 0.632 | 0.694 | 0.978
CGGUUUGCUAAUAGUCGCAAG [Fam3.1 aminoacylation ribozyme variant] | 1.68 | 1.18 | 1.17 | 1.17 | 1.18 | 2.27
AUUACCCUGAUGAUCGAGUGA [Fam2.1 aminoacylation ribozyme variant] | 14.4 | 5.5 | 13 | 12.7 | 5.25 | 79.7
AUUACCCGUGUCAUCGAGUGA [Fam2.1 aminoacylation ribozyme variant] | 10.7 | 4.4 | 8.6 | 8.54 | 4.8 | 38.3
AGGUUUGCUAACAGUCGCAAG [Fam3.1 aminoacylation ribozyme variant] | 4.91 | 1.57 | 1.66 | 1.68 | 1.25 | 15.2
AAGUUUACUAACAGUCGCAAG [Fam3.1 aminoacylation ribozyme variant] | 1.38 | 1.58 | 1.95 | 1.48 | 1.63 | 2.91
AUUACCCUGGCCAUGGAGUGA [Fam2.1 aminoacylation ribozyme variant] | 5.9 | 3.24 | 4.12 | 4.45 | 2.79 | 19.7
AAGUUGGUUAAUAGUCGCAAG [Fam3.1 aminoacylation ribozyme variant] | 1.81 | 1.4 | 1.46 | 1.42 | 1.24 | 1.87
CUAGUUCAAACAAUGGGUCUG [Fam1A.1 aminoacylation ribozyme variant] | 0.678 | 1.14 | 1.08 | 1.1 | 0.851 | 0.792
CCACACUUCAUGCAAUGGGUC [Fam1B.1 aminoacylation ribozyme variant] | 0.569 | 0.751 | 0.704 | 0.738 | 0.712 | 0.544
AAAUUUGCUAAUAGUCGCAGG [Fam3.1 aminoacylation ribozyme variant] | 3.16 | 1.97 | 2.47 | 2.11 | 1.79 | 2.3
AUGUUUGCUAAUAGUCGCACG [Fam3.1 aminoacylation ribozyme variant] | 0.741 | 1.15 | 1.13 | 1.02 | 0.981 | 1.24
AUACACCAAGGUCAUCGGGUG [Fam2.2 aminoacylation ribozyme variant] | 6.72 | 4.48 | 6.13 | 4.18 | 3.5 | 42.2
AUGUUUGCUAAUAGUCGCAUG [Fam3.1 aminoacylation ribozyme variant] | 1.38 | 1.34 | 1.72 | 1.58 | 1.39 | 1.52
AUUCACCUAGGUCUUCGGGUG [Fam2.2 aminoacylation ribozyme variant] | 4.38 | 3.33 | 5.48 | 4.46 | 3.71 | 27.4
